From patent publication US20260015399A1 (Boehringer Ingelheim, published 2026)
*1 amine or outer side, *2 acyl side, *3 side chain or, on linkers, in order; H or OH if unused. Side-chain parts run from the residue outwards. The star is where a group is joined. C18 diacid = O=C(O)CCCCCCCCCCCCCCCCC(=O)*; γGlu = O=C(O)[C@H](CCC(=O)[*:2])N[*:1]; Isovaleryl = CC(C)CC(=O)*; Ahx = NCCCCCC(=O)O

T1: human NPY2 receptor (human, UniProt P49146 1-381)
T1 construct: whole, on cells; also called hNPY2-R; hNPY2R
T1 sequence (looked up): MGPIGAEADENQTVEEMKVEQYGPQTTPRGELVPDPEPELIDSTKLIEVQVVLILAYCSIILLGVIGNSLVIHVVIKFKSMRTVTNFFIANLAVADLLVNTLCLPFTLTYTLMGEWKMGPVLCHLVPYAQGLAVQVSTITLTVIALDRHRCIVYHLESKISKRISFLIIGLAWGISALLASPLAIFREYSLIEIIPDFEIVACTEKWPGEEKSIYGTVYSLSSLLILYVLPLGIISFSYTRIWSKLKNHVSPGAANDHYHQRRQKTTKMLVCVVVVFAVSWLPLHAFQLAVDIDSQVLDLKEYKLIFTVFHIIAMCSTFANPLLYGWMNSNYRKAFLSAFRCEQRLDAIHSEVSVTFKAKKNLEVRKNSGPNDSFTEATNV


Target: T1, human NPY2 receptor
Assay: RLB: displacement of 125I-PYY(1-36) from hNPY2R membranes

Ki [nM] | Binder
1.54 | Isovaleryl-APEK([Ahx-γGlu-C18 diacid])PEADAEPEEIQRYYVALRHYYNWLTRQRY-NH2 (SMILES CC[C@H](C)[C@H](NC(=O)[C@H](CCC(=O)O)NC(=O)[C@H](CCC(=O)O)NC(=O)[C@@H]1CCCN1C(=O)[C@H](CCC(=O)O)NC(=O)[C@H](C)NC(=O)[C@H](CC(=O)O)NC(=O)[C@H](C)NC(=O)[C@H](CCC(=O)O)NC(=O)[C@@H]1CCCN1C(=O)[C@H](CCCCNC(=O)CCCCCNC(=O)CC[C@H](NC(=O)CCCCCCCCCCCCCCCCC(=O)O)C(=O)O)NC(=O)[C@H](CCC(=O)O)NC(=O)[C@@H]1CCCN1C(=O)[C@H](C)NC(=O)CC(C)C)C(=O)N[C@@H](CCC(N)=O)C(=O)N[C@@H](CCCNC(=N)N)C(=O)N[C@@H](Cc1ccc(O)cc1)C(=O)N[C@@H](Cc1ccc(O)cc1)C(=O)N[C@H](C(=O)N[C@@H](C)C(=O)N[C@@H](CC(C)C)C(=O)N[C@@H](CCCNC(=N)N)C(=O)N[C@@H](Cc1c[nH]cn1)C(=O)N[C@@H](Cc1ccc(O)cc1)C(=O)N[C@@H](Cc1ccc(O)cc1)C(=O)N[C@@H](CC(N)=O)C(=O)N[C@@H](Cc1c[nH]c2ccccc12)C(=O)N[C@@H](CC(C)C)C(=O)N[C@H](C(=O)N[C@@H](CCCNC(=N)N)C(=O)N[C@@H](CCC(N)=O)C(=O)N[C@@H](CCCNC(=N)N)C(=O)N[C@@H](Cc1ccc(O)cc1)C(N)=O)[C@@H](C)O)C(C)C) [Compound 131]
2.75 | Isovaleryl-APEK([Ahx-γGlu-C18 diacid])PEADATPEELQRYYVSLRHYYNWLTRQRY-NH2 (SMILES CC(C)CC(=O)N[C@@H](C)C(=O)N1CCC[C@H]1C(=O)N[C@@H](CCC(=O)O)C(=O)N[C@@H](CCCCNC(=O)CCCCCNC(=O)CC[C@H](NC(=O)CCCCCCCCCCCCCCCCC(=O)O)C(=O)O)C(=O)N1CCC[C@H]1C(=O)N[C@@H](CCC(=O)O)C(=O)N[C@@H](C)C(=O)N[C@@H](CC(=O)O)C(=O)N[C@@H](C)C(=O)N[C@H](C(=O)N1CCC[C@H]1C(=O)N[C@@H](CCC(=O)O)C(=O)N[C@@H](CCC(=O)O)C(=O)N[C@@H](CC(C)C)C(=O)N[C@@H](CCC(N)=O)C(=O)N[C@@H](CCCNC(=N)N)C(=O)N[C@@H](Cc1ccc(O)cc1)C(=O)N[C@@H](Cc1ccc(O)cc1)C(=O)N[C@H](C(=O)N[C@@H](CO)C(=O)N[C@@H](CC(C)C)C(=O)N[C@@H](CCCNC(=N)N)C(=O)N[C@@H](Cc1c[nH]cn1)C(=O)N[C@@H](Cc1ccc(O)cc1)C(=O)N[C@@H](Cc1ccc(O)cc1)C(=O)N[C@@H](CC(N)=O)C(=O)N[C@@H](Cc1c[nH]c2ccccc12)C(=O)N[C@@H](CC(C)C)C(=O)N[C@H](C(=O)N[C@@H](CCCNC(=N)N)C(=O)N[C@@H](CCC(N)=O)C(=O)N[C@@H](CCCNC(=N)N)C(=O)N[C@@H](Cc1ccc(O)cc1)C(N)=O)[C@@H](C)O)C(C)C)[C@@H](C)O) [Compound 132]
